The values below come from PMC4976051 (Journal of molecular biology, 2016).

This assay has as its target T1, E. coli RecB (E. coli, UniProt P08394 1-1180).
T1 sequence (looked up): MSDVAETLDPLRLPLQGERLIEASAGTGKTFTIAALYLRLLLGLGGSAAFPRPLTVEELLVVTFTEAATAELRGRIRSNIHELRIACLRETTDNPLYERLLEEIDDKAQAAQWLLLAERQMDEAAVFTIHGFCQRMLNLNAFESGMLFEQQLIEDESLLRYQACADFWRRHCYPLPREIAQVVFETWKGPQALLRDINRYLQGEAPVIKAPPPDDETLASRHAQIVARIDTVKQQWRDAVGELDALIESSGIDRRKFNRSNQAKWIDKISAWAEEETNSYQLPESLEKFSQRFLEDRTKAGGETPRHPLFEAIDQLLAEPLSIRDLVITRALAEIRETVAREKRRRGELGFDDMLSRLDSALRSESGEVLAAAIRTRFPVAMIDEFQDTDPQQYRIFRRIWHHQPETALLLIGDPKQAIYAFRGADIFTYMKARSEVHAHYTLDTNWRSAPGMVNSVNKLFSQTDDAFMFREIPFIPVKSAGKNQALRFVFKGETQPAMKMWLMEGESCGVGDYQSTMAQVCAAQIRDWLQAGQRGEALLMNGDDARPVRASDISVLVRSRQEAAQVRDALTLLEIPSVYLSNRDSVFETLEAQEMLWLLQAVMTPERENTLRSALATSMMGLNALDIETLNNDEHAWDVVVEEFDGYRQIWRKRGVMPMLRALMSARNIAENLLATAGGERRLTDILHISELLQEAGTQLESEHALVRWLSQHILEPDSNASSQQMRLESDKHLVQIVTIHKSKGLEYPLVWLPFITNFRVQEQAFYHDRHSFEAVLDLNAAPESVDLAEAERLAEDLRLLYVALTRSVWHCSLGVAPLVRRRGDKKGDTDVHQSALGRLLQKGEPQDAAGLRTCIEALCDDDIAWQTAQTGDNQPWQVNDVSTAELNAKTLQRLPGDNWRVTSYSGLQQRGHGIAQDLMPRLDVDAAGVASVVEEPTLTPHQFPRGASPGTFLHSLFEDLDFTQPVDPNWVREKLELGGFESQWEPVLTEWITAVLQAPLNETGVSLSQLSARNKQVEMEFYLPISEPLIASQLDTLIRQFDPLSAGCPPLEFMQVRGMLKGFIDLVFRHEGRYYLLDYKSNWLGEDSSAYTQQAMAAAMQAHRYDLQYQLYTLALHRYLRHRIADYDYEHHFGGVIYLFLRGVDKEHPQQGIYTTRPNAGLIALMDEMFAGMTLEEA
The experiment in a line: reconstitution from purified subunits.

B1: E. coli RecC (natural protein, UniProt P07648 1-1122, looked up)
chain: MLRVYHSNRLDVLEALMEFIVERERLDDPFEPEMILVQSTGMAQWLQMTLSQKFGIAANIDFPLPASFIWDMFVRVLPEIPKESAFNKQSMSWKLMTLLPQLLEREDFTLLRHYLTDDSDKRKLFQLSSKAADLFDQYLVYRPDWLAQWETGHLVEGLGEAQAWQAPLWKALVEYTHQLGQPRWHRANLYQRFIETLESATTCPPGLPSRVFICGISALPPVYLQALQALGKHIEIHLLFTNPCRYYWGDIKDPAYLAKLLTRQRRHSFEDRELPLFRDSENAGQLFNSDGEQDVGNPLLASWGKLGRDYIYLLSDLESSQELDAFVDVTPDNLLHNIQSDILELENRAVAGVNIEEFSRSDNKRPLDPLDSSITFHVCHSPQREVEVLHDRLLAMLEEDPTLTPRDIIVMVADIDSYSPFIQAVFGSAPADRYLPYAISDRRARQSHPVLEAFISLLSLPDSRFVSEDVLALLDVPVLAARFDITEEGLRYLRQWVNESGIRWGIDDDNVRELELPATGQHTWRFGLTRMLLGYAMESAQGEWQSVLPYDESSGLIAELVGHLASLLMQLNIWRRGLAQERPLEEWLPVCRDMLNAFFLPDAETEAAMTLIEQQWQAIIAEGLGAQYGDAVPLSLLRDELAQRLDQERISQRFLAGPVNICTLMPMRSIPFKVVCLLGMNDGVYPRQLAPLGFDLMSQKPKRGDRSRRDDDRYLFLEALISAQQKLYISYIGRSIQDNSERFPSVLVQELIDYIGQSHYLPGDEALNCDESEARVKAHLTCLHTRMPFDPQNYQPGERQSYAREWLPAASQAGKAHSEFVQPLPFTLPETVPLETLQRFWAHPVRAFFQMRLQVNFRTEDSEIPDTEPFILEGLSRYQINQQLLNALVEQDDAERLFRRFRAAGDLPYGAFGEIFWETQCQEMQQLADRVIACRQPGQSMEIDLACNGVQITGWLPQVQPDGLLRWRPSLLSVAQGMQLWLEHLVYCASGGNGESRLFLRKDGEWRFPPLAAEQALHYLSQLIEGYREGMSAPLLVLPESGGAWLKTCYDAQNDAMLDDDSTLQKARTKFLQAYEGNMMVRGEGDDIWYQRLWRQLTPETMEAIVEQSQRFLLPLFRFNQS
Turning to B1, the binding result was “binds”.
